Target: MutSα (MSH2–MSH6) (human (endogenous in HCT-116), UniProt P43246;P52701)
Assay: pull-down

Sequence of MutSα (MSH2–MSH6) (P43246 whole entry, chain 1 of 2): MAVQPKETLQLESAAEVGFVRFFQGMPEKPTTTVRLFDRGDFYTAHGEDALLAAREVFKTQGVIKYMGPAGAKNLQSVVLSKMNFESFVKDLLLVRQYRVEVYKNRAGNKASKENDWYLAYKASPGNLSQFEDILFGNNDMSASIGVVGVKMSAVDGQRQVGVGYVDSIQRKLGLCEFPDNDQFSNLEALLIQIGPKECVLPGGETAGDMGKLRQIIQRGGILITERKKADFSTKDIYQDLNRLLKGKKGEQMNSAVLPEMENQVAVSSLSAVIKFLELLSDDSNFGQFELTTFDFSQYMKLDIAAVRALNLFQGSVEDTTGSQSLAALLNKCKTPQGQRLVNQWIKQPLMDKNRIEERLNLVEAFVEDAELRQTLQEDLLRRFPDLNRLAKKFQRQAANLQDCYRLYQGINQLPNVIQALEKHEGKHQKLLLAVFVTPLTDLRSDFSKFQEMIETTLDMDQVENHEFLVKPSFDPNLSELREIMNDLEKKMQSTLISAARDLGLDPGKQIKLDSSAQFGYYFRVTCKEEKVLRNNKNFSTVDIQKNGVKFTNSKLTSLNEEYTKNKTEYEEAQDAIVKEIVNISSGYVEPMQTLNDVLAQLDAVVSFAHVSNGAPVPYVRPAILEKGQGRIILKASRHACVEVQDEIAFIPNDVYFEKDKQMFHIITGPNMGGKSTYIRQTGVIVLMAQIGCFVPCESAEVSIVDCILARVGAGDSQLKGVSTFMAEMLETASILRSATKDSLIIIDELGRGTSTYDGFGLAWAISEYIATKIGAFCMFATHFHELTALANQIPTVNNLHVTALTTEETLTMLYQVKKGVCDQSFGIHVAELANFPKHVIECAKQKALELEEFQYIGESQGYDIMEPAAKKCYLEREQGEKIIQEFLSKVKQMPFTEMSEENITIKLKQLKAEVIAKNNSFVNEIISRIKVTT
Sequence of MutSα (MSH2–MSH6) (P52701 whole entry, chain 2 of 2): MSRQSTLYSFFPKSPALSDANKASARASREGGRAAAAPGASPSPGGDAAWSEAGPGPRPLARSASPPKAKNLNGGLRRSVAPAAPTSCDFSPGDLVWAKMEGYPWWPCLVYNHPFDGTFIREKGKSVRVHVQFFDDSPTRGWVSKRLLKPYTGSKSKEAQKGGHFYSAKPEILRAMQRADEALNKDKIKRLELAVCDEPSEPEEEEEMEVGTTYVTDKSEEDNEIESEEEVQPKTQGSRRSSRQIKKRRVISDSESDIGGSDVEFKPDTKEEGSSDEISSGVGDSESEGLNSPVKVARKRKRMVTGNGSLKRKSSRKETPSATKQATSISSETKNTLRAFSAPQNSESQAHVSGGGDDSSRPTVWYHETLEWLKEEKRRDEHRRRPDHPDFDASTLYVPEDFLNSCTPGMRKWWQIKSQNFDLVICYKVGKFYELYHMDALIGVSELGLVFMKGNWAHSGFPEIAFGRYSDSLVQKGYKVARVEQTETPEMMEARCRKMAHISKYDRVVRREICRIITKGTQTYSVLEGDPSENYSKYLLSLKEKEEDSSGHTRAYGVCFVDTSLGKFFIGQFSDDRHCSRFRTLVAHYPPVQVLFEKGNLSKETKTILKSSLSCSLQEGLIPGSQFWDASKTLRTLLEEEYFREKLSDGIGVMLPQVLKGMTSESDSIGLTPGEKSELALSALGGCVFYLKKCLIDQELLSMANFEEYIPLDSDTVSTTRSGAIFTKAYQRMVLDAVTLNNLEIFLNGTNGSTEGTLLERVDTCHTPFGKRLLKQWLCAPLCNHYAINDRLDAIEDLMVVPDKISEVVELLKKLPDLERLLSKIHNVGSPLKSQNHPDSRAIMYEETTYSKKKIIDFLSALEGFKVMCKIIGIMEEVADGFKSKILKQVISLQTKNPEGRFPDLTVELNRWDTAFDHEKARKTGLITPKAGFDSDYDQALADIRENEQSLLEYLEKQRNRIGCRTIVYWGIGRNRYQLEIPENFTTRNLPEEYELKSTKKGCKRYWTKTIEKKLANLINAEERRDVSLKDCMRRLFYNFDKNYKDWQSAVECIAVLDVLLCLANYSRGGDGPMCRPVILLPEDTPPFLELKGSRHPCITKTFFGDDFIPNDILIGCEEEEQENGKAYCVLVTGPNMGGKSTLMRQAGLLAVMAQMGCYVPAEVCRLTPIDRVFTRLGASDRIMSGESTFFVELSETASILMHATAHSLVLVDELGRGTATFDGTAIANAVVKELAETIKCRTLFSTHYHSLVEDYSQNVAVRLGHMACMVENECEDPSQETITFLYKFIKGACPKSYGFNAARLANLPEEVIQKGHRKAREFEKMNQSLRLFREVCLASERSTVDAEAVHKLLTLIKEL

fold decrease of binding against wild-type MutLα: ~5 fold
B1: MutLα^(MLH1 A128P) (complex)
chain 1: MSFVAGVIRRLDETVVNRIAAGEVIQRPANAIKEMIENCLDAKSTSIQVIVKEGGLKLIQIQDNGTGIRKEDLDIVCERFTTSKLQSFEDLASISTYGFRGEALASISHVAHVTITTKTADGKCAYRPSYSDGKLKAPPKPCAGNQGTQITVEDLFYNIATRRKALKNPSEEYGKILEVVGRYSVHNAGISFSVKKQGETVADVRTLPNASTVDNIRSIFGNAVSRELIEIGCEDKTLAFKMNGYISNANYSVKKCIFLLFINHRLVESTSLRKAIETVYAAYLPKNTHPFLYLSLEISPQNVDVNVHPTKHEVHFLHEESILERVQQHIESKLLGSNSSRMYFTQTLLPGLAGPSGEMVKSTTSLTSSSTSGSSDKVYAHQMVRTDSREQKLDAFLQPLSKPLSSQPQAIVTEDKTDISSGRARQQDEEMLELPAPAEVAAKNQSLEGDTTKGTSEMSEKRGPTSSNPRKRHREDSDVEMVEDDSRKEMTAACTPRRRIINLTSVLSLQEEINEQGHEVLREMLHNHSFVGCVNPQWALAQHQTKLYLLNTTKLSEELFYQILIYDFANFGVLRLSEPAPLFDLAMLALDSPESGWTEEDGPKEGLAEYIVEFLKKKAEMLADYFSLEIDEEGNLIGLPLLIDNYVPPLEGLPIFILRLATEVNWDEEKECFESLSKECAMFYSIRKQYISEESTLSGQQSEVPGSIPNSWKWTVEHIVYKALRSHILPPKHFTEDGNILQLANLPDLYKVFERC
chain 2: MERAESSSTEPAKAIKPIDRKSVHQICSGQVVLSLSTAVKELVENSLDAGATNIDLKLKDYGVDLIEVSDNGCGVEEENFEGLTLKHHTSKIQEFADLTQVETFGFRGEALSSLCALSDVTISTCHASAKVGTRLMFDHNGKIIQKTPYPRPRGTTVSVQQLFSTLPVRHKEFQRNIKKEYAKMVQVLHAYCIISAGIRVSCTNQLGQGKRQPVVCTGGSPSIKENIGSVFGQKQLQSLIPFVQLPPSDSVCEEYGLSCSDALHNLFYISGFISQCTHGVGRSSTDRQFFFINRRPCDPAKVCRLVNEVYHMYNRHQYPFVVLNISVDSECVDINVTPDKRQILLQEEKLLLAVLKTSLIGMFDSDVNKLNVSQQPLLDVEGNLIKMHAADLEKPMVEKQDQSPSLRTGEEKKDVSISRLREAFSLRHTTENKPHSPKTPEPRRSPLGQKRGMLSSSTSGAISDKGVLRPQKEAVSSSHGPSDPTDRAEVEKDSGHGSTSVDSEGFSIPDTGSHCSSEYAASSPGDRGSQEHVDSQEKAPKTDDSFSDVDCHSNQEDTGCKFRVLPQPTNLATPNTKRFKKEEILSSSDICQKLVNTQDMSASQVDVAVKINKKVVPLDFSMSSLAKRIKQLHHEAQQSEGEQNYRKFRAKICPGENQAAEDELRKEISKTMFAEMEIIGQFNLGFIITKLNEDIFIVDQHATDEKYNFEMLQQHTVLQGQRLIAPQTLNLTAVNEAVLIENLEIFRKNGFDFVIDENAPVTERAKLISLPTSKNWTFGPQDVDELIFMLSDSPGVMCRPSRVKQMFASRACRKSVMIGTALNTSEMKKLITHMGEMDHPWNCPHGRPTMRHIANLGVISQN
